Columns and labels:
[1] = target: mitochondrial transcription factor B2 (TFB2M) protein (human) (UniProt Q9H5Q4); experiment: in situ proximity ligation assay (anti-TFAM sc-376672 and anti-TFB2M 13676), fixed PBMCs from septic patients (n=10), mean
[2] = target: mitochondrial transcription factor B2 (TFB2M) protein (human) (UniProt Q9H5Q4); experiment: in situ proximity ligation assay (anti-TFAM sc-376672 and anti-TFB2M 13676), fixed PBMCs from healthy controls (n=20), mean

Chain of UniProt Q9H5Q4 (Q9H5Q4 44-396): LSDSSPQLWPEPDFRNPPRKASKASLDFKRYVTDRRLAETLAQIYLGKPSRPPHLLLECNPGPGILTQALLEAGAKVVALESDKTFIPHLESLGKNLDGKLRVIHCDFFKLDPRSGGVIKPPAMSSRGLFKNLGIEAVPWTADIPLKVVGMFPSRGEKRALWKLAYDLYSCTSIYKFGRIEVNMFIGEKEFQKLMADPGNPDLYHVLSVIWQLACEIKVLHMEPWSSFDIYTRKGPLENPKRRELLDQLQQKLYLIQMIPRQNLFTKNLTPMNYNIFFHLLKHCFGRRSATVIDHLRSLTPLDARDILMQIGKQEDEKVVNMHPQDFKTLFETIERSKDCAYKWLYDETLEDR

PLA signals per cell (signals per cell) [1]: 1.2
PLA signals per cell (signals per cell) [2]: 4.5
Substance: mature mitochondrial transcription factor A (TFAM) protein (from UniProt Q00059 43-246)
